Target: CD38 on expanded NK cells (g-NK or cNK) (human) (UniProt P28907)
Test: cell-based or functional assay

daratumumab (antibody)
daratumumab-induced fratricide of expanded NK cells (4 h, 1 µg/mL, PI staining, 3-color flow cytometry) (times lower (g-NK versus cNK)): 13

Source: patent publication US20240316102A1
